Laboratory results taken from the RNAGym collection of RNA variant scans (doi:10.7554/elife.80360).

B1: Hairpin Ribozyme (parent)
chain: GUCCUCUUUCACGUGCGCGUGAAAGAGAGAAGUGAACCAGAGAAACACACGUUGUGGUAUAUUACCUGGUA

Variants of: B1
Assay: self-cleavage, relative activity (ratio to wild type); higher = more cleavage; co-transcriptional

Variant | self-cleavage
GUCCUCUUUCACGUGCGCGUGAAAGAGAGAAGUAAACCAGAGAAACACACGUCGUGGUAUAUUACCUGGUA | 1.13
GUCCUCUUUCACGUGCGCGUGAAAGAGAGAAGUAAACCAGAGAAACACACGUAGUGGUAUAUUACCUGGUA | 1.46
GUCCUCUUUCACGUGCGCGUGAAAGAGAGAAGUCAACCAGAGAAACACAAGUUGUGGUAUAUUACCUGGUA | 1.1
GUCCUCUUUCACGUGCGCGUGAAAGAGAGAAGUAAACCAGAGAAACACACGUUGUAGUAUAUUACCUGGUA | 0.252
GUCCUCUUUCACGUGCGCGUGAAAGAGAGAAGUCAACCAGAGAAACACACGUUAUGGUAUAUUACCUGGUA | 1.2
GUCCUCUUUCACGUGCGCGUGAAAGAGAGAAGUAAACCAGAGAAACACACGUUGUGGUAUAUCACCUGGUA | 0.0965
GUCCUCUUUCACGUGCGCGUGAAAGAGAGAAGUAAACCAGAGAAACACACGGUGUGGUAUAUUACCUGGUA | 1.09
GUCCUCUUUCACGUGCGCGUGAAAGAGAGAAGUAAACCAAAGAAACACACGUUGUGGUAUAUUACCUGGUA | 0.407
GUCCUCUUUCACGUGCGCGUGAAAGAGAGAAGUAAACCAUAGAAACACACGUUGUGGUAUAUUACCUGGUA | 0.198
GUCCUCUUUCACGUGCGCGUGAAAGAGAGAAGUCAACCAGAGAAACACACGUUGUGGUACAUUACCUGGUA | 1.41
GUCCUCUUUCACGUGCGCGUGAAAGAGAGAAGUCAACCAGAGAAACACACGUUGUGGUAAAUUACCUGGUA | 1.16
GUCCUCUUUCACGUGCGCGUGAAAGAGAGAAGUCAACCAGAGAAACACACGUUGUGGUAGAUUACCUGGUA | 0.828
GUCCUCUUUCACGUGCGCGUGAAAGAGAGAAGUCAACCACAGAAACACACGUUGUGGUAUAUUACCUGGUA | 0.188
GUCCUCUUUCACGUGCGCGUGAAAGAGAGAAGUCAACCAGAGAAACACACGUUGUGGUAUAUUACCCGGUA | 0.785
GUCCUCUUUCACGUGCGCGUGAAAGAGAGAAGUUAUCCAGAGAAACACACGUUGUGGUAUAUUACCUGGUA | 1.52
GUCCUCUUUCACGUGCGCGUGAAAGAGAGAAGUCAACCAGAGAAACACACGUGGUGGUAUAUUACCUGGUA | 1.03
GUCCUCUUUCACGUGCGCGUGAAAGAGAGAAGUCAACCAGAGAAACACACGUCGUGGUAUAUUACCUGGUA | 1.36
GUCCUCUUUCACGUGCGCGUGAAAGAGAGAAGUCAACCAGAGAAACACACGUAGUGGUAUAUUACCUGGUA | 0.963
GUCCUCUUUCACGUGCGCGUGAAAGAGAGAAGUAAACCAGAGAAACACACGUUCUGGUAUAUUACCUGGUA | 0.302
GUCCUCUUUCACGUGCGCGUGAAAGAGAGAAGUAAACCAGAGAAACACACGUUAUGGUAUAUUACCUGGUA | 0.745
GUCCUCUUUCACGUGCGCGUGAAAGAGAGAAGUAAACCAGAGAAACACACGUUGUGGUAUAUUACCUUGUA | 0.325
GUCCUCUUUCACGUGCGCGUGAAAGAGAGAAGUUAACCAGAGAGACACACGUUGUGGUAUAUUACCUGGUA | 0.348
GUCCUCUUUCACGUGCGCGUGAAAGAGAGAAGUUAACCAGAGAUACACACGUUGUGGUAUAUUACCUGGUA | 0.205
GUCCUCUUUCACGUGCGCGUGAAAGAGAGAAGUAAACCAGAGAAACACACGUUGUGGUAUAUUAUCUGGUA | 0.673
GUCCUCUUUCACGUGCGCGUGAAAGAGAGAAGUCAACCAGAGAAACACACGUUGUGGUAUAUUACGUGGUA | 0.627
GUCCUCUUUCACGUGCGCGUGAAAGAGAGAAGUCAACCAGAGAAACACACGUUGUGGUAUAUUACUUGGUA | 1.29

Variant | self-cleavage
GUCCUCUUUCACGUGCGCGUGAAAGAGAGAAGUUAACCAGGGAAACACACGUUGUGGUAUAUUACCUGGUA | 0.857
GUCCUCUUUCACGUGCGCGUGAAAGAGAGAAGUUAACCAGCGAAACACACGUUGUGGUAUAUUACCUGGUA | 1.55
GUCCUCUUUCACGUGCGCGUGAAAGAGAGAAGUCAACCAGAGAAACACACCUUGUGGUAUAUUACCUGGUA | 1.44
GUCCUCUUUCACGUGCGCGUGAAAGAGAGAAGUCAACCAGAGAAACACACGUUGUAGUAUAUUACCUGGUA | 0.737
GUCCUCUUUCACGUGCGCGUGAAAGAGAGAAGUCAACCAGAGAAACACACGUUGUCGUAUAUUACCUGGUA | 0.37
GUCCUCUUUCACGUGCGCGUGAAAGAGAGAAGUCAACCAGAGAAACACACGUUGUUGUAUAUUACCUGGUA | 0.331
GUCCUCUUUCACGUGCGCGUGAAAGAGAGAAGUCAACCAGAGAAACACACGUUGUGGUAUAUUACCUGGUG | 1.66
GUCCUCUUUCACGUGCGCGUGAAAGAGAGAAGUAAACCAGAUAAACACACGUUGUGGUAUAUUACCUGGUA | 0.406
GUCCUCUUUCACGUGCGCGUGAAAGAGAGAAGUCAACCAGAGAAACACACGUUGUGGUAUGUUACCUGGUA | 0.636
GUCCUCUUUCACGUGCGCGUGAAAGAGAGAAGUCAUCCAGAGAAACACACGUUGUGGUAUAUUACCUGGUA | 0.938
GUCCUCUUUCACGUGCGCGUGAAAGAGAGAAGUCACCCAGAGAAACACACGUUGUGGUAUAUUACCUGGUA | 1.25
GUCCUCUUUCACGUGCGCGUGAAAGAGAGAAGUCAACCAGAGAAACACACGUUGUGGUAUAUUACCUGUUA | 0.729
GUCCUCUUUCACGUGCGCGUGAAAGAGAGAAGUCAACCAGAGAACCACACGUUGUGGUAUAUUACCUGGUA | 0.0204
GUCCUCUUUCACGUGCGCGUGAAAGAGAGAAGUCAACCAGAGAAAUACACGUUGUGGUAUAUUACCUGGUA | 0.109
GUCCUCUUUCACGUGCGCGUGAAAGAGAGAAGUAAACCAGAGAAACACACGUUGUGGUAUAUUACCUGGGA | 0.979
GUCCUCUUUCACGUGCGCGUGAAAGAGAGAAGUCAACCAGAGAAACACACGUUGUGAUAUAUUACCUGGUA | 0.427
GUCCUCUUUCACGUGCGCGUGAAAGAGAGAAGUCAACCAGAGAAACACACGUUGUGUUAUAUUACCUGGUA | 0.96
GUCCUCUUUCACGUGCGCGUGAAAGAGAGAAGUUAACCAGAGGAACACACGUUGUGGUAUAUUACCUGGUA | 0.125
GUCCUCUUUCACGUGCGCGUGAAAGAGAGAAGUCAACCAGAGAAACACACGUUGUGGUAUAAUACCUGGUA | 0.471
GUCCUCUUUCACGUGCGCGUGAAAGAGAGAAGUCAACCAGAGAAACACACGUUGUGGUAUAGUACCUGGUA | 0.175
GUCCUCUUUCACGUGCGCGUGAAAGAGAGAAGUAAACCAGAGAAACACACGUUGUGAUAUAUUACCUGGUA | 0.207
GUCCUCUUUCACGUGCGCGUGAAAGAGAGAAGUCUACCAGAGAAACACACGUUGUGGUAUAUUACCUGGUA | 1.61
GUCCUCUUUCACGUGCGCGUGAAAGAGAGAAGUCAACCAGAGAAACCCACGUUGUGGUAUAUUACCUGGUA | 1.38
GUCCUCUUUCACGUGCGCGUGAAAGAGAGAAGUCAACCAGAGAAACAUACGUUGUGGUAUAUUACCUGGUA | 0.572
GUCCUCUUUCACGUGCGCGUGAAAGAGAGAAGUCAACCAGAGAAACAAACGUUGUGGUAUAUUACCUGGUA | 0.411
GUCCUCUUUCACGUGCGCGUGAAAGAGAGAAGUCAACCAGACAAACACACGUUGUGGUAUAUUACCUGGUA | 0.907

Variant | self-cleavage
GUCCUCUUUCACGUGCGCGUGAAAGAGAGAAGUCAACCAGAAAAACACACGUUGUGGUAUAUUACCUGGUA | 0.968
GUCCUCUUUCACGUGCGCGUGAAAGAGAGAAGUAAACCAGAGAAACACACGUUGUGGUAUAAUACCUGGUA | 0.315
GUCCUCUUUCACGUGCGCGUGAAAGAGAGAAGUAAACCAGAGAAACACACCUUGUGGUAUAUUACCUGGUA | 1.15
GUCCUCUUUCACGUGCGCGUGAAAGAGAGAAGUAAACCAGAGAAACACACAUUGUGGUAUAUUACCUGGUA | 1.28
GUCCUCUUUCACGUGCGCGUGAAAGAGAGAAGUAAACCAGAGAAACACAGGUUGUGGUAUAUUACCUGGUA | 0.481
GUCCUCUUUCACGUGCGCGUGAAAGAGAGAAGUCAACCAGAGAAACACACGUUGUGGUAUAUUACCUAGUA | 0.723
GUCCUCUUUCACGUGCGCGUGAAAGAGAGAAGUCAACCAGAGAAACACACGUUGUGGUAUAUUAACUGGUA | 1.45
GUCCUCUUUCACGUGCGCGUGAAAGAGAGAAGUCAACCAGAGAAACACCCGUUGUGGUAUAUUACCUGGUA | 0.186
GUCCUCUUUCACGUGCGCGUGAAAGAGAGAAGUCAACCAGAGAAACACUCGUUGUGGUAUAUUACCUGGUA | 0.743
GUCCUCUUUCACGUGCGCGUGAAAGAGAGAAGUAAACCAGAGAAACACACGUUGUGGUAUAUUACCAGGUA | 0.194
GUCCUCUUUCACGUGCGCGUGAAAGAGAGAAGUUUACCAGAGAAACACACGUUGUGGUAUAUUACCUGGUA | 1.44
GUCCUCUUUCACGUGCGCGUGAAAGAGAGAAGUCAACCAGAGAAACACACGUUGGGGUAUAUUACCUGGUA | 1.19
GUCCUCUUUCACGUGCGCGUGAAAGAGAGAAGUCAACCAGAGAAACACACGUUGAGGUAUAUUACCUGGUA | 1.16
GUCCUCUUUCACGUGCGCGUGAAAGAGAGAAGUCAACCAGAGAAACACACGAUGUGGUAUAUUACCUGGUA | 1.66
GUCCUCUUUCACGUGCGCGUGAAAGAGAGAAGUUAACCGGAGAAACACACGUUGUGGUAUAUUACCUGGUA | 1.15
GUCCUCUUUCACGUGCGCGUGAAAGAGAGAAGUUAACCUGAGAAACACACGUUGUGGUAUAUUACCUGGUA | 1.14
GUCCUCUUUCACGUGCGCGUGAAAGAGAGAAGUAAACCAGAGAAACACACGUUGUGGUAUAUUACCUGCUA | 0.402
GUCCUCUUUCACGUGCGCGUGAAAGAGAGAAGUAAACCAGAGAAACACACGUUGUGGUAUAUUACCUGAUA | 0.568
GUCCUCUUUCACGUGCGCGUGAAAGAGAGAAGUCAACCAGCGAAACACACGUUGUGGUAUAUUACCUGGUA | 1.47
GUCCUCUUUCACGUGCGCGUGAAAGAGAGAAGUCAACCAGGGAAACACACGUUGUGGUAUAUUACCUGGUA | 1.31
GUCCUCUUUCACGUGCGCGUGAAAGAGAGAAGUAAACCAGAGAAACAGACGUUGUGGUAUAUUACCUGGUA | 0.17
GUCCUCUUUCACGUGCGCGUGAAAGAGAGAAGUAAACCAGAGAAACAAACGUUGUGGUAUAUUACCUGGUA | 0.122
GUCCUCUUUCACGUGCGCGUGAAAGAGAGAAGUCAACCAGAGAUACACACGUUGUGGUAUAUUACCUGGUA | 0.119
GUCCUCUUUCACGUGCGCGUGAAAGAGAGAAGUCAACCAGAGAGACACACGUUGUGGUAUAUUACCUGGUA | 0.264
